Reference: article doi:10.1101/2025.02.04.636439 (bioRxiv, 2025)

Molecular target: T1, Mycobacterium tuberculosis thiosulfate-sulfurtransferase SseA (Mycobacterium tuberculosis, UniProt P9WHF7 1-297)
T1 sequence: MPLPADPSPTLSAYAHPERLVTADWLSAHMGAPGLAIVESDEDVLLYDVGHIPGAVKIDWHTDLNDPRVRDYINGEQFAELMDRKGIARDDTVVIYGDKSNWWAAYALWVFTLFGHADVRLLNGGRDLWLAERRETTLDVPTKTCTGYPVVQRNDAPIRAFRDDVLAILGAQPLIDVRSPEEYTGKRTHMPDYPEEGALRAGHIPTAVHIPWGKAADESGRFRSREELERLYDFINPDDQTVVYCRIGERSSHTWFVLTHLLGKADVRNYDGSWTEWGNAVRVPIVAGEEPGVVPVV
Experiment: ITC

B1: SufEMtb (Rv3284), SufE-like protein of Mycobacterium tuberculosis (natural protein)
chain: MTAPASLPAPLAEVVSDFAEVQGQDKLRLLLEFANELPALPSHLAESAMEPVPECQSPLFLHVDASDPNRVRLHFSAPAEAPTTRGFASILAAGLDEQPAADILAVPEDFYTELGLAALISPLRLRGMSAMLARIKRRLREAD
Kd: 3.3 µM
dH: -11.6 kcal/mol
stoichiometry N: 1
